From article PMC8086144, “A novel peptide antagonist of the human growth hormone receptor” (The Journal of Biological Chemistry, 2021) come the findings set out here.

Series [1] in a line: Stability of hGH and pegvisomant in human serum (Western blot). It counts as in vitro ADME. Particulars: RPMI with 25% (v/v) heat-inactivated human AB serum, 37 °C, 25 μg/ml protein, SDS-PAGE/Western blot densitometry, average of three experiments. As for the experimental part: (§1) The samples were then incubated at 95 °C for 5 min before being cooled on ice and stored at −80 °C. […] Following separation, the proteins were transferred to polyvinylidine difluoride membranes and subjected to Western blot analysis (vide infra). The fraction of intact protein was quantified by measuring the integrated density of each band contained within regions of the gel corresponding to “intact” or “degraded” proteins. […] These reactions were allowed to incubate at 37 °C for up to 8 h, with samples removed at selected timepoints for analysis. Following incubation, the samples were either mixed with 5× Laemmli loading buffer and subjected to SDS-PAGE for Western blot analysis (Fig. S5) or directly injected onto a C18 reversed-phase column for analysis by HPLC as described above for the S1H peptide (Fig. S4).

The target of series [2] is T1, trypsin (bovine pancreas) (Bos taurus, UniProt P00760).
T1 construct: purchased Sigma-Aldrich; host or cells: bovine pancreas
T1 sequence (P00760 24-246): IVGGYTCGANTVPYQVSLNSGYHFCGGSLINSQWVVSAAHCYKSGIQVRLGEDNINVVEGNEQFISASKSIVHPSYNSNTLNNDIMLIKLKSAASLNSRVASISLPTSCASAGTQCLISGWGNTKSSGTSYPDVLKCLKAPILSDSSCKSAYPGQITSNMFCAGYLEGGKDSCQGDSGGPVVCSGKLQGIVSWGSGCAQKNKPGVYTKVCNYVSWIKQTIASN
Put plainly: Trypsin degradation of hGH and pegvisomant (HPLC and Western blot). It is filed as in vitro ADME. Particulars: 4 μg/ml trypsin in digestion buffer pH 7.8, 37 °C, up to 8 h, 25 μg/ml protein. As for the experimental part: as §1
On the technique in general: Immunoblotting shows a protein as a band on a membrane.

In the next series the target is T2, hPRLR (Homo sapiens, UniProt P16471).
T2 construct: T84 cells express high levels of hPRLR relative to hGHR (>1300:1); host or cells: T84 (human colon cancer), MALME-3M (human melanoma)
T2 sequence (P16471 25-622): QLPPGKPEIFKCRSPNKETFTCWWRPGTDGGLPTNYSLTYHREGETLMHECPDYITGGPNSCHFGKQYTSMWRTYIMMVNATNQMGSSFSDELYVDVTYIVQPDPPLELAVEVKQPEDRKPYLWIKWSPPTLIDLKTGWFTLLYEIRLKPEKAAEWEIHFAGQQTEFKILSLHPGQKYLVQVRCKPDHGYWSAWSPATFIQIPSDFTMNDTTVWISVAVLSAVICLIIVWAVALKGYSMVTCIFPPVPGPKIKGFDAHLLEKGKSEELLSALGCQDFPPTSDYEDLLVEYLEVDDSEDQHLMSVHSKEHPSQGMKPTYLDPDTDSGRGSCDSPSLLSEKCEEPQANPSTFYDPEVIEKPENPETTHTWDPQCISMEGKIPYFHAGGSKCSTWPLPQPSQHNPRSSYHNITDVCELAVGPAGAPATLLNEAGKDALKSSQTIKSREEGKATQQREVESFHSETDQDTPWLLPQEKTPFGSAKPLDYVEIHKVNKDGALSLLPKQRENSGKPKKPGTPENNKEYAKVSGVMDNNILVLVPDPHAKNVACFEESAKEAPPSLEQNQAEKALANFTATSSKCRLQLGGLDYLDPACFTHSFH
Put plainly: hGH-mediated pSTAT5 in T84 cells, Western blot. It counts as cell-based. Particulars: 50 nM inhibitor with 2.5 nM hGH, 20 min. How it is done: SK-MEL-28, MALME-3M, and T84 cells were grown and maintained in Eagle's Minimal Essential Medium. IM9 and L cells were grown in RPMI-1640 media and Dulbecco's modified Eagle's medium, respectively. All growth media was supplemented with 10% fetal bovine serum and 1× antibiotic-antimycotic […] solution. Cells were grown at 37 °C under a 5% CO2 atmosphere in a humidified incubator, and growth media was replaced every 48 h during incubation. No hGH was present in or added to the growth media unless specifically indicated. […]
Following treatment, the cells were harvested at the indicated time points, and the total protein was extracted. […] Sample protein concentration was quantified using a Bradford assay with bovine serum albumin as the protein standard. Absorbance at 595 nm was measured using a Spectramax 250 multimode plate reader (Molecular Devices) and processed using SoftmaxPro v4.7.1 software.
Cytosolic fractions from treated cells were thawed on ice, and 80 μg protein was loaded onto polyacrylamide gels for separation by SDS-PAGE. […] Chemiluminescence signals were detected using a GelDoc (BioRad) fluorescence imager. […] Percent inhibition was then measured by subtracting the pSTAT5 band intensity in each lane from the pSTAT5 band intensity of hGH-treated samples. […]

The target in series [3] is human growth hormone receptor (human (endogenous in SK-MEL-28, MALME-3M, IM9)) (UniProt P10912).
Series [4] has as its target T3, mouse GHR (mouse (endogenous in L fibroblasts)) (UniProt P16882).
T3 sequence: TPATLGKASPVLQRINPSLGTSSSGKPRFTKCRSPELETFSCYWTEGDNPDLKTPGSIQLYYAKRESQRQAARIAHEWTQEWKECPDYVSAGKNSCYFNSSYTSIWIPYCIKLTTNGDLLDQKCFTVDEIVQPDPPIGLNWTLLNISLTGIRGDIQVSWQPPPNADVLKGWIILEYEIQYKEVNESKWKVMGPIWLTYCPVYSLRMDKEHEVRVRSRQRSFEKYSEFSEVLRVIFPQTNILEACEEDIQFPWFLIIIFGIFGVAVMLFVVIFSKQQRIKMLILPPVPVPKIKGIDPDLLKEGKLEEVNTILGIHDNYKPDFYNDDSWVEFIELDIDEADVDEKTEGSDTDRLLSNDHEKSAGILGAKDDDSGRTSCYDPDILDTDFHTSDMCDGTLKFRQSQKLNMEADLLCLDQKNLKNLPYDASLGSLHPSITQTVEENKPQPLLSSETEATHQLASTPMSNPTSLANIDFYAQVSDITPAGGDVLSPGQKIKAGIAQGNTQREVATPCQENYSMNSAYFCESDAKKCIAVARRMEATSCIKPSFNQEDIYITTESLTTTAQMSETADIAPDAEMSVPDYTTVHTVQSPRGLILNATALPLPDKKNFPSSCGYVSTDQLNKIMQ

In series [5] the target is human growth hormone receptor (human (endogenous in SK-MEL-28, MALME-3M, IM9)) (UniProt P10912). The source holds these as a separate data set.
Series [6] deals with T4, human prolactin receptor (human (endogenous in T84, MALME-3M)) (UniProt P16471).
T4 sequence: T2 sequence (P16471 25-622)

human growth hormone receptor (human (endogenous in SK-MEL-28, MALME-3M, IM9)), sequence (P10912 19-638): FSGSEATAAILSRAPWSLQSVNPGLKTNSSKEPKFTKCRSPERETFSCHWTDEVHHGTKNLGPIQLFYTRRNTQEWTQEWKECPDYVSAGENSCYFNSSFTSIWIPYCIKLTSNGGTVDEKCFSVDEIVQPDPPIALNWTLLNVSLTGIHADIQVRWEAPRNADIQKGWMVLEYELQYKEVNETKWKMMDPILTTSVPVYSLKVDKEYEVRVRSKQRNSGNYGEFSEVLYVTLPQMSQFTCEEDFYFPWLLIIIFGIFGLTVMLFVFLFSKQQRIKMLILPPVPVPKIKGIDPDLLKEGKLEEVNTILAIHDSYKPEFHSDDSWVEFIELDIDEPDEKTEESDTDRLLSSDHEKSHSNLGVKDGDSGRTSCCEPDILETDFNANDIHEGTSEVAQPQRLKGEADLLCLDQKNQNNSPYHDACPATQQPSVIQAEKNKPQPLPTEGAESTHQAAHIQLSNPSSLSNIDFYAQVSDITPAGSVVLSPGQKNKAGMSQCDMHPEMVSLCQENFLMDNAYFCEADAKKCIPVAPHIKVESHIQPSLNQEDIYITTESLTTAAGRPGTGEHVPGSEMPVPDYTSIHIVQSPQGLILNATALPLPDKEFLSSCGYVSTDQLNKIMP

Take pegvisomant [reference compound]: the “protein remaining intact after 48 h in human serum” value in series [1] stood at 76%. In addition, the “time to full degradation by trypsin” value in series [2] was determined as 4 h. In addition, at hPRLR, the “suppression of hGH-mediated phosphorylation of STAT5” value turned out to be 27%.
Consider Ac-YIPKEQKYSFLQNPQT-NH2 [S1H peptide (site 1-binding helix)], for which, in series [3], the suppression of hGH-mediated pSTAT5 (Western blot) in IM9 cells co-treated with 2.5 nM hGH and 200 nM S1H; pair blocked: hGH with hGHR was found to be 67%; the suppression of hGH-mediated pSTAT5 (Western blot) in MALME-3M cells co-treated with 2.5 nM hGH and 200 nM S1H; pair blocked: hGH with hGHR was found to be 56%; the suppression of hGH-mediated pSTAT5 (Western blot) in SK-MEL-28 cells co-treated with 2.5 nM hGH and S1H, 100 nM (46%) to 200 nM (67%); pair blocked: hGH with hGHR came to 67%. The suppression of hGH-mediated pSTAT5 (Western blot) in mouse L fibroblasts co-treated with GH and 200 nM S1H; pair blocked: GH with the GHR of the L cells in series [4] is 36%. Further, the inhibition of hGH-induced pSTAT5 (Western blot) in MALME-3M cells treated with 2.5 nM hGH and 50 nM S1H; pair blocked: hGH with hGHR in series [5] came out at 40%. This molecule also had an inhibition of hPRL-induced pSTAT5 (Western blot) in MALME-3M cells treated with 2.5 nM hPRL and S1H; pair blocked: hPRL with hPRLR in series [6] of 49%.
